Measured values: patent publication US20020082414A1

Columns and labels:
[1] = molecular target: human ETB-receptor (ET-receptor derived from pHETBR31 and pHETBR34) (human) (UniProt P24530); experiment: displacement of 125I-ET-1 from COS-7 cells expressing the ETB-receptor
[2] = molecular target: human ETA-receptor (ET-receptor derived from phETIR) (human) (UniProt P25101); experiment: displacement of 50 pM 125I-ET-1 from COS-7 cells expressing the ETA-receptor
Chain of human ETA-receptor (ET-receptor derived from phETIR) (human) (P25101 21-427 limits assumed, form in doubt): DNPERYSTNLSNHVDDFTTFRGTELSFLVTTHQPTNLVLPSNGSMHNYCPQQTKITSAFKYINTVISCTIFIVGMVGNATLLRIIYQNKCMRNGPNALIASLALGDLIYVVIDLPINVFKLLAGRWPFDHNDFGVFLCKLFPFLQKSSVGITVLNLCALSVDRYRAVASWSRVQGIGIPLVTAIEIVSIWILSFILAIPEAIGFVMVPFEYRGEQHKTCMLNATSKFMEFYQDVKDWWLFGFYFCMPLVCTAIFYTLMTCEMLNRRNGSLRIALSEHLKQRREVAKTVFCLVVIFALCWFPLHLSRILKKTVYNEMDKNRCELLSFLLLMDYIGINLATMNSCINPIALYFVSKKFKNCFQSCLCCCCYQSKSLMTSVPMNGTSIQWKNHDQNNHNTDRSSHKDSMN

Chain of human ETB-receptor (ET-receptor derived from pHETBR31 and pHETBR34) (human) (P24530 27-442 limits assumed, form in doubt): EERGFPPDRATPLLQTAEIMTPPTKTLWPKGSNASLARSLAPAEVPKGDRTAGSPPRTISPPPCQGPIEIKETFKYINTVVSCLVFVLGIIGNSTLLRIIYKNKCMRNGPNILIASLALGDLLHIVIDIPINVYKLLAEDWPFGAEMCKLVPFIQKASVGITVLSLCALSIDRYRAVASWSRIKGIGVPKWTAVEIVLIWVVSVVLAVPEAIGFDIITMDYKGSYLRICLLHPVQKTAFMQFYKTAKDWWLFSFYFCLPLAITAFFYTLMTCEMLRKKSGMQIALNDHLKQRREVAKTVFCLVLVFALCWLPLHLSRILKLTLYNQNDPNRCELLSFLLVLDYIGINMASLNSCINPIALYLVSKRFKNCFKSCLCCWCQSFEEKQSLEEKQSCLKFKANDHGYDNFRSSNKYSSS

| IC50 [1] [nM] | IC50 [2] [nM] | Substance |
| --- | --- | --- |
| 1 | 6.1 | Endothelin 2 (from UniProt P20800 49-69) (peptide) |
| 1 | – | Endothelin 3 (from UniProt P14138 97-117) (peptide) |
